Target: T1, von Willebrand factor (UniProt P04275 764-2813, limits assumed)
T1 construct: also called vWF
Experiment: ELISA on coated vWF, bound FVIII detected with chromogenic Coatest SP FVIII reagents; reference value set by definition
Procedure: All other potencies were calculated in relation to ReFacto AF. […] However, the only significant difference could be detected between Nuwiq and FVIII-19M. The reduced binding, also of FVIII-6rs, might be due to different post-translational modifications made by the CAP-T cells. This could be correlated with the reduced sulfation detected in the heavy and light chain in the Western Blot. Missing sulfation might have influenced vWF binding, as especially the sulfation at Y1683 is important for the binding of vWF.
For the detection of the binding of the FVIII constructs to vWF, another ELISA was performed. In this case, vWF was coated to the wells of a 96-well plate at a concentration of 0.1 U/ml. Afterwards the FVIII variants were applied at a concentration of 0.25 U/ml. ReFacto AF was used as a reference. Each sample was furtheron diluted 1:2 in buffer. A total of 7 serial dilutions were performed. […] After addition of the substrate, the plate was immediately put into a plate reader and the development of the chromogenic substrate was measured at 405 nm for 490 seconds. The generated curves were analyzed using the PLA 3.0 software. Potencies of vWF-binding of the different FVIII products were calculated in relation to ReFacto AF.

B1: ReFacto AF (other)
chain: ATRRYYLGAVELSWDYMQSDLGELPVDARFPPRVPKSFPFNTSVVYKKTLFVEFTDHLFNIAKPRPPWMGLLGPTIQAEVYDTVVITLKNMASHPVSLHAVGVSYWKASEGAEYDDQTSQREKEDDKVFPGGSHTYVWQVLKENGPMASDPLCLTYSYLSHVDLVKDLNSGLIGALLVCREGSLAKEKTQTLHKFILLFAVFDEGKSWHSETKNSLMQDRDAASARAWPKMHTVNGYVNRSLPGLIGCHRKSVYWHVIGMGTTPEVHSIFLEGHTFLVRNHRQASLEISPITFLTAQTLLMDLGQFLLFCHISSHQHDGMEAYVKVDSCPEEPQLRMKNNEEAEDYDDDLTDSEMDVVRFDDDNSPSFIQIRSVAKKHPKTWVHYIAAEEEDWDYAPLVLAPDDRSYKSQYLNNGPQRIGRKYKKVRFMAYTDETFKTREAIQHESGILGPLLYGEVGDTLLIIFKNQASRPYNIYPHGITDVRPLYSRRLPKGVKHLKDFPILPGEIFKYKWTVTVEDGPTKSDPRCLTRYYSSFVNMERDLASGLIGPLLICYKESVDQRGNQIMSDKRNVILFSVFDENRSWYLTENIQRFLPNPAGVQLEDPEFQASNIMHSINGYVFDSLQLSVCLHEVAYWYILSIGAQTDFLSVFFSGYTFKHKMVYEDTLTLFPFSGETVFMSMENPGLWILGCHNSDFRNRGMTALLKVSSCDKNTGDYYEDSYEDISAYLLSKNNAIEPRSFSQNPPVLKRHQREITRTTLQSDQEEIDYDDTISVEMKKEDFDIYDEDENQSPRSFQKKTRHYFIAAVERLWDYGMSSSPHVLRNRAQSGSVPQFKKVVFQEFTDGSFTQPLYRGELNEHLGLLGPYIRAEVEDNIMVTFRNQASRPYSFYSSLISYEEDQRQGAEPRKNFVKPNETKTYFWKVQHHMAPTKDEFDCKAWAYFSDVDLEKDVHSGLIGPLLVCHTNTLNPAHGRQVTVQEFALFFTIFDETKSWYFTENMERNCRAPCNIQMEDPTFKENYRFHAINGYIMDTLPGLVMAQDQRIRWYLLSMGSNENIHSIHFSGHVFTVRKKEEYKMALYNLYPGVFETVEMLPSKAGIWRVECLIGEHLHAGMSTLFLVYSNKCQTPLGMASGHIRDFQITASGQYGQWAPKLARLHYSGSINAWSTKEPFSWIKVDLLAPMIIHGIKTQGARQKFSSLYISQFIIMYSLDGKKWQTYRGNSTGTLMVFFGNVDSSGIKHNIFNPPIIARYIRLHPTHYSIRSTLRMELMGCDLNSCSMPLGMESKAISDAQITASSYFTNMFATWSPSKARLHLQGRSNAWRPQVNNPKEWLQVDFQKTMKVTGVTTQGVKSLLTSMYVKEFLISSSQDGHQWTLFFQNGKVKVFQGNQDSFTPVVNSLDPPLLTRYLRIHPQSWVHQIALRMEVLGCEAQDLY
  potency of binding to vWF (relative to ReFacto AF): 1 relative potency
